First the molecules themselves.
T1: mIL2-his (mouse, UniProt P04351 21-169)
T1 construct: also called wild-type mouse IL-2 (with a his-tag); not shown: his-tag
T1 sequence (looked up): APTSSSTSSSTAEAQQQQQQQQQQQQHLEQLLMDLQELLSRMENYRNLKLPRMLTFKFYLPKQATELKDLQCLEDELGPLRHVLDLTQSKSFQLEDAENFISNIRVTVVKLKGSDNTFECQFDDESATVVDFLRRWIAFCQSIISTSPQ

T2: hIL2Rβ (hCD122) (human, UniProt P14784 27-239, limits assumed)
T2 construct: bought recombinant protein; also called hCD122 (Acro)
T2 sequence (looked up): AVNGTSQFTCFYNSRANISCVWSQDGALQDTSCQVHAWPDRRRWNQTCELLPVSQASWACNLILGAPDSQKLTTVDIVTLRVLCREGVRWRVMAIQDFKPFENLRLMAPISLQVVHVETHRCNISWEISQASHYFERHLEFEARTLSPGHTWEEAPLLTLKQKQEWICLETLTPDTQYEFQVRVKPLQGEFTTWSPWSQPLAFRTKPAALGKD

T3: high-affinity IL2R expressed on the surface of CTLL-2 cells
T3 sequence (P01590 whole entry, species assumed, looked up): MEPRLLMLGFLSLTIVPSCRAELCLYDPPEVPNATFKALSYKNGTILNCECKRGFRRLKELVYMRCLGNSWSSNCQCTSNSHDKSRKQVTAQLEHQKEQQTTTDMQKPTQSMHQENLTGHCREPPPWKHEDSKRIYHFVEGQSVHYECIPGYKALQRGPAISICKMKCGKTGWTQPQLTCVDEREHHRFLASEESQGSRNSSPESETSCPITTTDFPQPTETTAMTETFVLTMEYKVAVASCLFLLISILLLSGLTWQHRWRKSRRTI
T3 sequence (P16297 whole entry, species assumed, looked up): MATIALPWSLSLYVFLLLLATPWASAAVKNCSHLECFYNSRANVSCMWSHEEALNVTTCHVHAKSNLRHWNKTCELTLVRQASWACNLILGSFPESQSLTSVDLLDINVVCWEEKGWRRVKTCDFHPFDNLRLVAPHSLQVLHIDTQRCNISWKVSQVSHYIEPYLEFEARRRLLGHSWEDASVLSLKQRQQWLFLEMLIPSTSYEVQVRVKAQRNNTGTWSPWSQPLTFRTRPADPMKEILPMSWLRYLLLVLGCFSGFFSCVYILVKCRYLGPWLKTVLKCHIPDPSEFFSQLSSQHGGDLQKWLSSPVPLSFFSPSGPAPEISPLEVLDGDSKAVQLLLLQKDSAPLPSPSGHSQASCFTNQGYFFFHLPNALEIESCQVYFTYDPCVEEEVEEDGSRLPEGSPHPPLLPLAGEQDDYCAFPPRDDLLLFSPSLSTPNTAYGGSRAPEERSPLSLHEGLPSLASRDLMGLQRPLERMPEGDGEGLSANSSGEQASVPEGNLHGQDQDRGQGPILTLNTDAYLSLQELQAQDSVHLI
T3 sequence (P34902 whole entry, species assumed, looked up): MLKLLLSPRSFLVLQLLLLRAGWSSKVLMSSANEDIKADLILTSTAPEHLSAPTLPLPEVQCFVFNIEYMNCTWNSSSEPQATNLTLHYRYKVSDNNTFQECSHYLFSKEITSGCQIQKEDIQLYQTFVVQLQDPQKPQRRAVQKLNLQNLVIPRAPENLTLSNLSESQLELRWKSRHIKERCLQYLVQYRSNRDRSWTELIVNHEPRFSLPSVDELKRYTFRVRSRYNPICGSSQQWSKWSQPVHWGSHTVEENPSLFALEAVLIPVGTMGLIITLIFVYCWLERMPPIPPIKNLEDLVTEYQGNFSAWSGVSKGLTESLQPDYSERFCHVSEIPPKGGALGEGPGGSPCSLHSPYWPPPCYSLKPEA

B1: hS4B6-H1K1 (antibody, V domains shown)
VH: QVQLQESGPGLVKPSETLSLTCTVSGDTITAYYLHWIRQPPGKGLEWIGRIDPEDDSTKYAENFKNRVTISVDTSKNQFSLKLSSVTAADTAVYYCTTVTFYYSRELRWFAYWGQGTTVTVSS
VL: DIVLTQSPGTLSLSPGERATLSCQASQDIGNYLSWYQQKPGQAPRLLIYSATSLADGIPDRFSGSRSGTDYTLTISRLEPEDFAVYYCLQHYSTPYTFGQGTKVEIK
notes: full antibody
B2: IC-Cy08-DE (other)
heavy: APTSSSTKKTQLQLEHLLLDLQMILNGINNYKNPKLTRMLTFKFYMPKKATELKHLQCLEEELGCLEEVLNLAQSKNFHLRPRDLISNIRVIVLELKGSETTFMCEYADETATIVEFLNRWITFCQSIISTLTGGGGSGGGGSGGGGSGGGGSQVQLVQSGAEVKKPGATVKISCKVSGDTITAYYMHWVRQAPGQGLEWIGRIDPEDDSTKYAENFKGRVTITADTSTDTAYMELSSLRSEDTAVYYCTTVTCYYSRELRWFAYWGQGTLVTVSS
VL: B1 VL with D1E, G9A, D56S, D60A, Y71F, R77S, V104L
notes: IC-Cy08 with light chain D1E; also called H6K3(H)-Cy-08-DE
B3: IC-Cy08-QD (other)
heavy: B2 heavy
VL: B1 VL with G9A, Q27D, D56S, D60A, Y71F, R77S, V104L
notes: IC-Cy08 with light chain Q27D; also called H6K3(H)-Cy-08-QD
B4: IC-Cy08-QK (other)
heavy: B2 heavy
VL: B1 VL with G9A, Q27K, D56S, D60A, Y71F, R77S, V104L
notes: IC-Cy08 with light chain Q27K; also called H6K3(H)-Cy-08-QK; C-Cy8-QK
B5: IC-Cy08-QR (other)
heavy: B2 heavy
VL: B1 VL with G9A, Q27R, D56S, D60A, Y71F, R77S, V104L
notes: IC-Cy08 with light chain Q27R; also called H6K3(H)-Cy-08-QR
B6: IC-Cy08-QG (other)
heavy: B2 heavy
VL: B1 VL with G9A, Q27G, D56S, D60A, Y71F, R77S, V104L
notes: IC-Cy08 with light chain Q27G; also called H6K3(H)-Cy-08-QG
B7: IC-Cy08-QS (other)
heavy: B2 heavy
VL: B1 VL with G9A, Q27S, D56S, D60A, Y71F, R77S, V104L
notes: IC-Cy08 with light chain Q27S; also called H6K3(H)-Cy-08-QS
B8: IC-Cy08-QE (other)
heavy: B2 heavy
VL: B1 VL with G9A, Q27E, D56S, D60A, Y71F, R77S, V104L
notes: IC-Cy08 with light chain Q27E; also called H6K3(H)-Cy-08-QE
B9: K2G11-Cy04 (other)
heavy: SSSTKKTQLQLEHLLLDLQMILNGINNYKNPKLTRMLTFKFYMPKKATELKHLQCLEEELGPLEEVLNLAQSKNFHLRPRDLISNIRVIVLELKGSETTFCCEYADETATIVEFLNRWITFLQSIISTLTGGGGSGGGGSGGGGSGGGGSQVQLVQSGAEVKKPGATVKISCKVSGDTITAYYMHWVRQAPGQGLEWIGRIDPDDDSTKYAENFKGRVTITADTSTDTAYMELSSLRSEDTAVYYCTTITFLYSRELRWFAYWGQGTLVTVSS
VL: B1 VL with G9A, D28Y, G30S, T52C, D56S, D60A, Y71F, R77S, V104L
B10: hS4B6-H6K3-hu09 (antibody, V domains shown)
VH: QVQLVQSGAEVKKPGATVKISCKVSGDTITAYYLHWVRQAPGQGLEWIGRIDPEDDSTKYAENFKNRVTITADTSTNTAYMELSSLRSEDTAVYYCTTVTFYYSRELRWFAYWGQGTLVTVSS
VL: B1 VL with G9A, D56S, D60A, R77S, V104L
notes: H6K3 with light chain D56S
B11: hS4B6-H6K3-hu05 (antibody, V domains shown)
VH: B10 VH with I48M
VL: B1 VL with G9A, D60A, R77S, V104L
notes: H6K3 with heavy chain I48M
B12: hS4B6-H6K3-hu08 (antibody, V domains shown)
VH: B10 VH with N77D
VL: B1 VL with G9A, D60A, R77S, V104L
notes: H6K3 with heavy chain N76D; also called H6K3-huis
B13: hS4B6-H6K3-hu01 (antibody, V domains shown)
VH: B10 VH with D27Y
VL: B1 VL with G9A, D60A, R77S, V104L
notes: H6K3 with heavy chain D27Y
B14: hS4B6-H6K3-hu10 (antibody, V domains shown)
VH: B10 VH
VL: B1 VL with G9A, D56T, D60A, R77S, V104L
notes: H6K3 with light chain D56T
B15: hS4B6-H6K3-hu04 (antibody, V domains shown)
VH: B10 VH with L34M
VL: B1 VL with G9A, D60A, R77S, V104L
notes: H6K3 with heavy chain L34M
B16: hS4B6-H6K3-hu12 (antibody, V domains shown)
VH: B10 VH
VL: B1 VL with G9A, D60A, Y71F, R77S, V104L
notes: H6K3 with light chain Y71F
B17: hS4B6-H6K3-hu07 (antibody, V domains shown)
VH: B10 VH with N66G
VL: B1 VL with G9A, D60A, R77S, V104L
notes: H6K3 with heavy chain N65G
B18: hS4B6-H6K3-hu11 (antibody, V domains shown)
VH: B10 VH
VL: B1 VL with G9A, D60A, R66G, R77S, V104L
notes: H6K3 with light chain R66G
B19: hS4B6-H6K3-hu02 (antibody, V domains shown)
VH: B10 VH with I29F
VL: B1 VL with G9A, D60A, R77S, V104L
notes: H6K3 with heavy chain I29F
B20: hS4B6-H6K3-hu03 (antibody, V domains shown)
VH: B10 VH with A31D
VL: B1 VL with G9A, D60A, R77S, V104L
notes: H6K3 with heavy chain A31D
B21: hS4B6-H6K3-hu06 (antibody, V domains shown)
VH: B10 VH with N66S
VL: B1 VL with G9A, D60A, R77S, V104L
notes: H6K3 with heavy chain N65S

Residue numbers refer to the chain shown, from its start. Names and notes keep the numbering of the source.

For the first assay, the target named is T1, mIL2-his. Description: ELISA, antibody captured by anti-human IgG, mIL2-his titrated.
Description: (§1) ELISA was performed as follows: a goat anti-human IgG (Jackson Immunoresearch) was diluted to 1 μg/mL in 1×PBS and added to an ELISA plate at 100 μL/well, and then incubated at 4° C. overnight. The plate was washed with PBS and then blocked at room temperature for 1 hour after adding the blocking solution (PBST containing 1% BSA) to each well. […] The plate was washed with PBST; the HRP-labeled anti-6×His-tag secondary antibody (Proteintech) diluted at a ratio of 1:10,000 in blocking solution was then added to each well and incubated at room temperature for 1 hour. The plate was washed with PBST; the TMB chromogenic solution (Thermo) was added to each well and incubated in dark for 3-10 minutes at room temperature. The stop solution (2 M HCl) was added to each well, and OD values at a wavelength of 450-570 nm were read using a multimode microplate reader (Varioskan, Thermo).
Regarding B1, a half-maximal effect (EC50) was put at 0.0357 µg/mL.

For another assay, the target named is T2, hIL2Rβ (hCD122). The assay is described as follows: ELISA (method of section 2.1.1): sample captured on coated goat anti-human IgG, hCD122 titrated; the x axis is the CD122 concentration.
Description: as §1
With B2, the binding result is “binds”.

B3: the binding result was “binds”.

In the case of B4, the binding result is reported as “binds”.

B5: the binding result is given as “binds”.

As for B6, the binding result was “binds”.

Turning to B7, the binding result is reported as “binds”.

For the molecule B8, the binding result is “binds”.

The next assay has as its target T1, mIL2-his. The assay is described as follows: BLI ForteBio, Ab on Protein A sensor.
Description: After each cycle of association and dissociation steps, the sensor was regenerated by 10 mM glycine buffer (pH 1.5) and then stated with the next cycle of detection. After the detection, the association rate constant and dissociation rate constant between the antibody and antigen were fitted and extrapolated using the analytical software, and the value of affinity constant (KD) was calculated.
B1 came in with a Kd of 25.9 nM, a koff of 0.000719 s⁻¹ and a kon of 27700 M⁻¹ s⁻¹.

A further assay has as its target T3, high-affinity IL2R expressed on the …. Description: cell-based or functional assay.
For the molecule B9, the “Activity in Promoting CTLL-2 Cell Proliferation (EC50, nM)” value is 9.17 nM.

The target in another assay is T4, hIL2-DM-his (human, UniProt P60568 21-153).
T4 construct: expressed in ExpiCHO-S cells, nickel-column purified; also called hIL-2 mutein containing two point mutations K64G and N90R (with a his-tag); not shown: his-tag
The assay is described as follows: BLI ForteBio, Ab on Protein A sensor.
On to B10, for which the “Binding Response (nm)” value turned out to be 0.18 nm, binding was put at a Kd of 23.6 nM, the dissociation rate constant (koff) worked out at 0.00867 s⁻¹ and the kon came out at 367000 M⁻¹ s⁻¹.

Take B11: the “Binding Response (nm)” value was determined as 0.139 nm, the Kd worked out at 39.4 nM, the koff came out at 0.0152 s⁻¹ and the kon turned out to be 387000 M⁻¹ s⁻¹.

In the case of B12, the “Binding Response (nm)” value was 0.127 nm, the Kd was 58.1 nM, the koff was 0.0207 s⁻¹ and the kon was 356000 M⁻¹ s⁻¹.

As for B13, the binding result is reported as “no binding (tested: 100 nM (highest antigen concentration))”.

Consider B14, for which the “Binding Response (nm)” value worked out at 0.172 nm, binding was characterised by a dissociation constant (Kd) of 28.3 nM, the koff is 0.0106 s⁻¹ and the kon stood at 372000 M⁻¹ s⁻¹.

On to B15, for which the “Binding Response (nm)” value came to 0.143 nm, the Kd was 34.6 nM, the koff came out at 0.0149 s⁻¹ and the kon was 430000 M⁻¹ s⁻¹.

On to B16, for which the “Binding Response (nm)” value is 0.152 nm, binding was put at a Kd of 32.3 nM, the koff was found to be 0.0174 s⁻¹ and the kon came out at 537000 M⁻¹ s⁻¹.

Consider B17, for which the “Binding Response (nm)” value stood at 0.13 nm, the Kd was 45.3 nM, the koff is 0.0181 s⁻¹ and the kon was found to be 400000 M⁻¹ s⁻¹.

With B18, the binding result is “no binding (tested: 100 nM (highest antigen concentration))”.

In the case of B19, the binding result is recorded as “no binding (tested: 100 nM (highest antigen concentration))”.

For B20, the binding result is “no binding (tested: 100 nM (highest antigen concentration))”.

Regarding B21, the “Binding Response (nm)” value turned out to be 0.135 nm; the affinity, expressed as Kd, was 52.5 nM; the koff was 0.0192 s⁻¹; the kon was found to be 365000 M⁻¹ s⁻¹.

For the origin of these results see patent US20250346644A1 (LATTICON SUZHOU BIOPHARMACEUTICALS, published 2025).
